B1: mouse PKD1L3-CTD (residues 1632–2151) (domain or fragment, UniProt Q2EG98 1632-2151, looked up)
chain: PIYTAPAMNNLAKPTRKAWKKQLSKLTGGTLVQILFLTLLMTTVYSAKDSSRFFLHRAIWKRFSHRFSEIKTVEDFYPWANGTLLPNLYGDYRGFITDGNSFLLGNVLIRQTRIPNDIFFPGSLHKQMKSPPQHQEDRENYGAGWVPPDTNITKVDSIWHYQNQESLGGYPIQGELATYSGGGYVVRLGRNHSAATRVLQHLEQRRWLDHCTKALFVEFTVFNANVNLLCAVTLILESSGVGTFLTSLQLDSLTSLQSSERGFAWIVSQVVYYLLVCYYAFIQGCRLKRQRLAFFTRKRNLLDTSIVLISFSILGLSMQSLSLLHKKMQQYHCDRDRFISFYEALRVNSAVTHLRGFLLLFATVRVWDLLRHHAQLQVINKTLSKAWDEVLGFILIIVVLLSSYAMTFNLLFGWSISDYQSFFRSIVTVVGLLMGTSKHKEVIALYPILGSLLVLSSIILMGLVIINLFVSAILIAFGKERKACEKEATLTDMLLQKLSSLLGIRLHQNPSEEHADNTGY
notes: PKD1L3, mouse, Uniprot Q2EG98, carboxy-terminal domain (TM6-TM11 = S1-S6; VSD, PMD and PD), residues 1632-2151; it is not clear whether each chain has both tags or one tag each; No tag removal is described; also called mPKD1L3 (residues 1632–2151); TRP-like domain; source: HEK293F, transiently co-transfected with mPKD2L1, purified (anti-Flag M2 resin, Strep-Tactin resin, SEC in GDN)
B2: mouse PKD2L1 (residues 64–629) (domain or fragment, UniProt A2A259 64-629, looked up)
chain: TLVSSCCLHICRSIRGLWGTTLTENTAENRELYVKTTLRELVVYIVFLVDICLLTYGMTSSSAYYYTKVMSELFLHTPSDSGVSFQTISSMSDFWDFAQGPLLDSLYWTKWYNNQSLGRGSHSFIYYENLLLGAPRLRQLRVRNDSCVVHEDFREDILNCYDVYSPDKEDQLPFGPQNGTAWTYHSQNELGGSSHWGRLTSYSGGGYYLDLPGSRQASAEALQGLQEGLWLDRGTRVVFIDFSVYNANINLFCILRLVVEFPATGGTIPSWQIRTVKLIRYVNNWDFFIVGCEVVFCVFIFYYVVEEILEIHLHRLRYLSSVWNILDLVVILLSIVAVGFHIFRTLEVNRLMGKLLQQPDTYADFEFLAFWQTQYNNMNAVNLFFAWIKIFKYISFNKTMTQLSSTLARCAKDILGFAIMFFIVFFAYAQLGYLLFGTQVENFSTFVKCIFTQFRIILGDFDYNAIDNANRILGPVYFVTYVFFVFFVLLNMFLAIINDTYSEVKEELAGQKDQLQLSDFLKQSYNKTLLRLRLRKERVSDVQKVLKGGEPEIQFEDFTSTLRELG
notes: PKD2L1, mouse, Uniprot A2A259, residues 64-629 (lacks the C-terminal coiled-coil domain); Three copies of this chain (I, II, III) stand with one PKD1L3-CTD in the heterotetramer; It is not clear whether each chain has both tags or one tag each; also called mPKD2L1 (residues 64–629); TRPP2; source: HEK293F, transiently co-transfected with mPKD1L3, purified (anti-Flag M2 resin, Strep-Tactin resin, …)

Common to all, as to test: cryo-EM structure; co-expressed and co-purified PKD1L3-CTD/PKD2L1 complex in 20 mM HEPES pH 7.5, 150 mM NaCl, 0.01% GDN, 0.2% Fos-Choline-8 added; without (apo, 3.4 Å) and with 20 mM CaCl2 (Ca2+-loaded, 3.1 Å)
The target in data set [1] is B2. The settings on record: both partners purified.
The target in data set [2] is B1. The following applies: both partners purified.
Data set [3] deals with the molecule itself.

Results on two molecules are retold here after paper PMC8357825, “Structural basis for Ca^2+ activation of the heteromeric PKD1L3/PKD2L1 channel” (Nature Communications, 2021).

Turning to B1, in data set [1], the binding result is listed as “binds”.
As a reminder, the stoichiometry N is the number of molecules, sites or subunits per partner or assembly. In the case of B2, the “stoichiometry N” value in data set [2] turned out to be 3 PKD2L1 per PKD1L3. For the same molecule, the binding result in data set [3] is reported as “binds”.
